Data on 7 molecules can be found in patent EP4714976A1 (Sunshine Lake Pharma Co., Ltd., dated 2026).

The Kd is a measure of binding affinity in units of concentration. The koff is a measure of how fast the partners let go of each other. The kon is a measure of how fast the partners come together. The EC50 is the concentration giving half of the maximal effect.

The labels stand for the following.
T1: FGFR4 (acro) (UniProt P22455 22-369)
T1 sequence (looked up): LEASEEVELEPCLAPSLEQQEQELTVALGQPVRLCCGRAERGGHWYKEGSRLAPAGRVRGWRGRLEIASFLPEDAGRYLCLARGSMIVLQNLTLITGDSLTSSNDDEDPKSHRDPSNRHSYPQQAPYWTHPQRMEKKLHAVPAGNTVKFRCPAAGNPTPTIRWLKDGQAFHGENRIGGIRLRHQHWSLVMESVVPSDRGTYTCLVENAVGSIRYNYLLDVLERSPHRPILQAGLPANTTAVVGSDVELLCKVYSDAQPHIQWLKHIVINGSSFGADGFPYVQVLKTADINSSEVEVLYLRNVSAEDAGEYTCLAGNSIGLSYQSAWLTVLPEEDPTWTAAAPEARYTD

B1: 3B7 scFv-Fc (Fc fusion)
chain: EVQLQQSGAELVKPGASVKMSCKASGYTFRYYNMHWVKRTPGQGLEWIGLIYPDNGDTSYNQKFKGKATLTADTSSSTAYMQLSSLTSEDSAVYYCARGGFDYWGQGTTLTVSSGGGGSGGGGSGGGGSDIQMTQSPASLSASVGETVTITCGASENIYGALNWYQRKQGKSPQLLIYGATNLADGMSSRFSGSGSGRQYSLKISSLHPDDVATYYCQNVLSTPYTFGGGTKLELKESKYGPPCPPCPAPEAAGGPSVFLFPPKPKDTLMISRTPEVTCVVVDVSQEDPEVQFNWYVDGVEVHNAKTKPREEQFNSTYRVVSVLTVLHQDWLNGKEYKCKVSNKGLPSSIEKTISKAKGQPREPQVYTLPPSQEEMTKNQVSLTCLVKGFYPSDIAVEWESNGQPENNYKTTPPVLDSDGSFFLYSKLTVDKSRWQEGNVFSCSVMHEALHNHYTQKSLSLSLG
notes: scFv-Fc dimer
B2: 3F10 scFv-Fc (Fc fusion)
chain: B1 chain with R30S, Y31F, M34I, K38R, R39Q, G66A, T74K, I131V, Q132L, L235I
notes: scFv-Fc dimer
B3: 3F5 scFv-Fc (Fc fusion)
chain: B1 chain with V2I, F101L, Q132V, M133L, L235I
notes: scFv-Fc dimer
B4: 3C9 scFv-Fc (Fc fusion)
chain: B1 chain with V2I, T28I, F101L, T134I, L235I
notes: scFv-Fc dimer
B5: 1D7 scFv-Fc (Fc fusion)
chain: QIQLQQSGAELVKPGASVKMSCKASGYTFRYYNMHWVKRTPGQGLEWIGLIYPDNGDTSYNQKFKGKATLTADTSSSTAYMQLSSLTSEDSAVYYCARGGLDYWGQGTSLTVSSGGGGSGGGGSGGGGSDIQMTQSPSSMSASLGDRITITCQATQDIVKNLNWYQQKPGKPPSFLIYYATELAEGVPSRFSGSGSGSDYSLTISNLESEDFADYYCLQFYEFPLTFGAGTKLELKESKYGPPCPPCPAPEAAGGPSVFLFPPKPKDTLMISRTPEVTCVVVDVSQEDPEVQFNWYVDGVEVHNAKTKPREEQFNSTYRVVSVLTVLHQDWLNGKEYKCKVSNKGLPSSIEKTISKAKGQPREPQVYTLPPSQEEMTKNQVSLTCLVKGFYPSDIAVEWESNGQPENNYKTTPPVLDSDGSFFLYSKLTVDKSRWQEGNVFSCSVMHEALHNHYTQKSLSLSLG
notes: scFv-Fc dimer
B6: 3D7 scFv-Fc (Fc fusion)
chain: QVQLQQSGAELVKPGASVKMSCKASGYTFSFYNMHWVKRTPGRGLEWIGLIYPDNGDTSYNQKFKGKATLTADTSSSTAYMQLSSLTSEDSAVYYCARGGLDYWGQGTSLTVSSGGGGSGGGGSGGGGSEIVLTQSPASLAVSLGQRATISCKASQSVDYDGDSYMNWYQQKPGQPPKLLIYGISNRFSGVPDRFSGSGSGTDFTLKISTIKPEDLGMYYCLQGTHQPYTFGGGTKLEIKESKYGPPCPPCPAPEAAGGPSVFLFPPKPKDTLMISRTPEVTCVVVDVSQEDPEVQFNWYVDGVEVHNAKTKPREEQFNSTYRVVSVLTVLHQDWLNGKEYKCKVSNKGLPSSIEKTISKAKGQPREPQVYTLPPSQEEMTKNQVSLTCLVKGFYPSDIAVEWESNGQPENNYKTTPPVLDSDGSFFLYSKLTVDKSRWQEGNVFSCSVMHEALHNHYTQKSLSLSLG
notes: scFv-Fc dimer
B7: 1A3 scFv-Fc (Fc fusion)
chain: QVQLQQPGAELVKPGASVKMSCKASGYTFASYNLHWVKQTPGQGLEWIGLIYPENGDTSYNQKFKGKATLTADKSSSTAYIQLSSLTSEDSAVYFCARGGFDYWGQGTTLTVSQGGGGSGGGGSGGGGSDIQMTQSPASLSASVGETVTITCGASENIYGALNWYQRKQGKSPQLLIYGATNLADGMSSRFSGSGSGRQYSLKISSLHPDDVATYYCQNVLSTPYTFGGGTKLEIKESKYGPPCPPCPAPEAAGGPSVFLFPPKPKDTLMISRTPEVTCVVVDVSQEDPEVQFNWYVDGVEVHNAKTKPREEQFNSTYRVVSVLTVLHQDWLNGKEYKCKVSNKGLPSSIEKTISKAKGQPREPQVYTLPPSQEEMTKNQVSLTCLVKGFYPSDIAVEWESNGQPENNYKTTPPVLDSDGSFFLYSKLTVDKSRWQEGNVFSCSVMHEALHNHYTQKSLSLSLG
notes: scFv-Fc dimer

Substitutions are numbered along the chain they refer to.

T2 sequence (P21802 22-377): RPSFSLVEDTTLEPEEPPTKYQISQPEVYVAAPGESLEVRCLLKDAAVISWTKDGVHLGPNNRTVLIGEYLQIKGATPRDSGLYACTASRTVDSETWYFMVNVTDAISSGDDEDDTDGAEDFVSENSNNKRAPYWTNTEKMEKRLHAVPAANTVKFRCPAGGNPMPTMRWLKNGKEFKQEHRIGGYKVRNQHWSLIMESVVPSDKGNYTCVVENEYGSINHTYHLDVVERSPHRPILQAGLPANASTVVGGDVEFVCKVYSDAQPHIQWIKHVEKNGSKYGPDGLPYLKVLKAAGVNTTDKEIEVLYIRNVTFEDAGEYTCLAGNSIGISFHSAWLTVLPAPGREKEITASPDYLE

One assay concerns the target T2, FGFR2c (acro) (UniProt P21802 22-377). Kind of assay: ELISA.
On to B1, for which the binding result is on record as “no binding (tested: 10 µg/mL)”.
Consider B2, for which the binding result was “no binding (tested: 10 µg/mL)”.
Still for that read-out and setting: the value for B3 was “no binding (tested: 10 µg/mL)”; that for B4 was “no binding (tested: 10 µg/mL)”; that for B5 was “no binding (tested: 10 µg/mL)”.
Still for that read-out and setting: the value for B6 was “no binding (tested: 10 µg/mL)”.

Another assay concerns the target T1, FGFR4 (acro). Kind of assay: ELISA. For orientation: In an ELISA, binding on a coated surface is turned into a signal by an enzyme label.
On to B1, for which the binding result is on record as “no binding (tested: 10 µg/mL)”.
B2: the binding result was “no binding (tested: 10 µg/mL)”.
Still for that read-out and setting: the value for B3 was “no binding (tested: 10 µg/mL)”; that for B4 was “no binding (tested: 10 µg/mL)”.
Same read-out and setting: the value for B7 was “no binding (tested: 10 µg/mL)”; that for B5 was “no binding (tested: 10 µg/mL)”.

In the next assay the target is T3, recombinant cynomolgus monkey FGFR2b (cynomolgus monkey).
T3 construct: extracellular domain; bought; also called cynomolgus macaque FGFR2b
Kind of assay: ELISA, antibody 1ug/mL.
For the molecule B1, the “OD (450 nm) value” was 3.12.
As to B2, the “OD (450 nm) value” was found to be 3.22.
B3: the “OD (450 nm) value” was 3.17.
For the molecule B4, the “OD (450 nm) value” amounted to 3.25.
Take B7: the “OD (450 nm) value” was 3.27.
In the case of B5, the “OD (450 nm) value” came out at 3.17.
B6: the “OD (450 nm) value” stood at 3.3.

The target of another assay is T2, FGFR2c (acro). Kind of assay: ELISA, antibody 10 µg/mL.
With B1, the “OD (450 nm) value” is 0.089.
On the same count and under the same terms, the value for B2 was 0.106; that for B3 was 0.111.
For B4, the “OD (450 nm) value” was 0.118.
Same read-out and setting: the value for B5 was 0.091; that for B6 was 0.127.

The target in another assay is T1, FGFR4 (acro). Kind of assay: ELISA, antibody 10 µg/mL.
For B1, the “OD (450 nm) value” was found to be 0.116.
Consider B2, for which the “OD (450 nm) value” turned out to be 0.123.
Regarding B3, the “OD (450 nm) value” came to 0.145.
For B4, the “OD (450 nm) value” amounted to 0.139.
Regarding B7, the “OD (450 nm) value” turned out to be 0.099.
Regarding B5, the “OD (450 nm) value” came to 0.156.

In another assay the target is T4, human FGFR2b (Kaixia Biotechnology, catalog number FGR-HM1BB) (human, UniProt P21802-3 22-378).
T4 construct: extracellular domain; bought; also called hFGFR2b; human FGFR2b protein
T4 sequence (P21802 other isoform, or with tags, fused parts or gaps): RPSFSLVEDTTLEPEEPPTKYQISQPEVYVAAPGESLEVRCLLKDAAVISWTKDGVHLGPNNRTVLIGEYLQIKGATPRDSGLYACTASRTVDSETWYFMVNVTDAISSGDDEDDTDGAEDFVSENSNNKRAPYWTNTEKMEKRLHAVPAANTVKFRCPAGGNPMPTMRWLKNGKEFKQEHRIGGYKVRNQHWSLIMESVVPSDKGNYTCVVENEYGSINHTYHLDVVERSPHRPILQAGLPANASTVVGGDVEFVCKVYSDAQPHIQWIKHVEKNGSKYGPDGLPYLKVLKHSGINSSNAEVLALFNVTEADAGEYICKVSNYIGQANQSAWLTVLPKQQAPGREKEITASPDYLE
Kind of assay: BLI, antibody on AHC2 sensor.
In the case of B1, the dissociation constant Kd worked out at 7.6 nM, the koff was determined as 0.00203 s⁻¹ and the kon worked out at 267000 M⁻¹ s⁻¹.
B2 displayed a Kd of 7.62 nM, a koff of 0.00231 s⁻¹ and a kon of 303000 M⁻¹ s⁻¹.
The molecule B3 registered a Kd of 5.1 nM, a koff of 0.00143 s⁻¹ and an association rate constant (kon) of 281000 M⁻¹ s⁻¹.
B4 had a dissociation constant Kd of 2.7 nM, a koff of 0.000954 s⁻¹ and a kon of 353000 M⁻¹ s⁻¹.
With B7, the equilibrium dissociation constant (Kd) came to 12.2 nM, the koff was 0.00477 s⁻¹ and the on-rate (kon) was determined as 392000 M⁻¹ s⁻¹.
As to B5, the Kd was 4.51 nM, the koff came to 0.00208 s⁻¹ and the on-rate (kon) was 460000 M⁻¹ s⁻¹.
B6 displayed a Kd of 8.58 nM, a koff of 0.00203 s⁻¹ and an association rate constant (kon) of 236000 M⁻¹ s⁻¹.

The target of a further assay is T5, FGFR2b on KATO III cells (human, UniProt P21802-3 22-822).
T5 construct: whole, on cells; also called KATO III cells that overexpress FGFR2b
T5 sequence (P21802 other isoform, or with tags, fused parts or gaps): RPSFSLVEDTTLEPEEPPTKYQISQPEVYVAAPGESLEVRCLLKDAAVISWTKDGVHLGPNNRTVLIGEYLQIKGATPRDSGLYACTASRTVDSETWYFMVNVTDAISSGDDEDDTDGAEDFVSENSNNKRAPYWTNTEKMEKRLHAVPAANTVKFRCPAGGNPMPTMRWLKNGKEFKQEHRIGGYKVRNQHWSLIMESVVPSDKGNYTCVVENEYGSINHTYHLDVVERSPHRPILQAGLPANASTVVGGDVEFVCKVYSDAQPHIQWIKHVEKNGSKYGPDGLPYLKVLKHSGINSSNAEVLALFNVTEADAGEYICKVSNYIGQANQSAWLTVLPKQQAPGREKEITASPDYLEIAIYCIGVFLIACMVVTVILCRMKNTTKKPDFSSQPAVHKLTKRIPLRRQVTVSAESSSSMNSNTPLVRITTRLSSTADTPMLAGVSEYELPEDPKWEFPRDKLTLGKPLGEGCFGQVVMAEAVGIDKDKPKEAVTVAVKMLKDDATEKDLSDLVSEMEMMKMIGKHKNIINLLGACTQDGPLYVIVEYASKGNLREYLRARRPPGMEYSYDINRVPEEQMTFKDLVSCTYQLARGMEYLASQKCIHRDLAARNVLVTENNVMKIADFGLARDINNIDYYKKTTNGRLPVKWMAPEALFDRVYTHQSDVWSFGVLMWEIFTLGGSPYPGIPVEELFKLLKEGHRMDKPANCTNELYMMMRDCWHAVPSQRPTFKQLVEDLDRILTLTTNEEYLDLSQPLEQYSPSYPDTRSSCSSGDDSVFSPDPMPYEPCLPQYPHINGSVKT
Kind of assay: flow cytometry, KATO III cells.
B1 yielded a 50% effective concentration (EC50) of 0.117 µg/mL.
Consider B2, for which a half-maximal effect (EC50) was put at 0.159 µg/mL.
In the case of B3, the concentration for a half-maximal effect (EC50) was 0.105 µg/mL.
On to B4, for which a half-maximal effect (EC50) was put at 0.253 µg/mL.
For the molecule B7, the midpoint of the response, the EC50, lay at 0.0656 µg/mL.
As to B5, the EC50 came out at 0.167 µg/mL.
Still for that read-out and setting: the value for B6 was 0.259 µg/mL.

The next assay addresses T4, human FGFR2b (Kaixia Biotechnology, …). Kind of assay: ELISA, FGFR2b coated at 1 µg/ml.
In turn, B1 yielded a 50% effective concentration (EC50) of 0.0147 µg/mL.
The same measure, in the same setting: the value for B2 was 0.00818 µg/mL; that for B3 was 0.0159 µg/mL; that for B4 was 0.0147 µg/mL.
On the same count and under the same terms, the value for B7 was 0.00818 µg/mL; that for B5 was 0.0154 µg/mL; that for B6 was 0.0369 µg/mL.
